Data reported in WO2021084104A1 (dated 2021).
Each block holds one binder with its values, some of them ahead of it.

How the values were obtained:
[1] = molecular target: T1, full-length CD40 on cells (transfected CHO-S cells, Raji B-cell line, primary B cells) (human, UniProt P25942 21-277); experiment: flow cytometry on transfected and endogenously expressing cells (Fig. 6A)
T1 construct: whole, on cells; also called target expressing cells

[2] = molecular target: T2, full-length OX40 on cells (transfected CHO-S cells, in vitro activated CD4 positive T-cells) (human, UniProt P43489 29-277); experiment: as above
T2 construct: whole, on cells; also called 0X40; target expressing cells
T2 sequence (looked up): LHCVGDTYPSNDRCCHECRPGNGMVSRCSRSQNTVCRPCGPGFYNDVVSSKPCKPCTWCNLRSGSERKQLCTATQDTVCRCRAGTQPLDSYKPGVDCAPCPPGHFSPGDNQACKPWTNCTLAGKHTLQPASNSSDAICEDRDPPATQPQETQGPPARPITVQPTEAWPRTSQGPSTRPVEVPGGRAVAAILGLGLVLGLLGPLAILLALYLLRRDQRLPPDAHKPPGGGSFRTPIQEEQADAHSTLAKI

[3] = molecular target: T1, full-length CD40 on cells (transfected …); experiment: flow cytometry on overexpressing or endogenously expressing cells (Fig. 7)
[4] = molecular target: T2, full-length OX40 on cells (transfected …); experiment: as above
[5] = molecular target: T2, full-length OX40 on cells (transfected …); experiment: flow cytometry on transfected and endogenously expressing cells (Fig. 6C)
[6] = molecular target: T3, full-length 4-1BB on cells (transfected CHO-S cells, in vitro activated CD4 positive T-cells) (human, UniProt Q07011 24-255); experiment: as above
T3 construct: whole, on cells; also called target expressing cells

[7] = molecular target: T1, full-length CD40 on cells (transfected …); experiment: flow cytometry on transfected and endogenously expressing cells (Fig. 6B)
[8] = molecular target: T3, full-length 4-1BB on cells (transfected …); experiment: as above

T1 sequence (P25942 21-277): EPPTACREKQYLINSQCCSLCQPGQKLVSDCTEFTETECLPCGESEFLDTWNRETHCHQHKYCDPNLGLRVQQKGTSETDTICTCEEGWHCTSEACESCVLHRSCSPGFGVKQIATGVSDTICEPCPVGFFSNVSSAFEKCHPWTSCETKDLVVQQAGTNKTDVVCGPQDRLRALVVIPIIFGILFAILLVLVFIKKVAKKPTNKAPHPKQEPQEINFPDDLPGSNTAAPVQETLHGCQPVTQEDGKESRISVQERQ
T3 sequence (Q07011 24-255): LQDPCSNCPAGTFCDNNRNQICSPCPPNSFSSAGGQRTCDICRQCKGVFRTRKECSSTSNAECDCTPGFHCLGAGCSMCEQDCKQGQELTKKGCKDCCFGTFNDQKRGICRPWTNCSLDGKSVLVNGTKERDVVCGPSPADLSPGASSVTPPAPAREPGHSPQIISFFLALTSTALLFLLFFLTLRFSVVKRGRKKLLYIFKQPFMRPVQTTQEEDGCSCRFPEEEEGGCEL

binding result [1]: binds | binding result [2]: binds
B1: tetra VH IgG #2 (VH-CH1=OX40 #2, VH-CL=CD40 #5) (bispecific antibody, V domains shown, not shown: a dimerising Fc or GST)
V domain 1: EVQLLESGGGLVQPGGSLRLSCAASGFTFSSYAMSWVRQAPGKGLEWVSGVSGGGGSTYYADSVRGRFTISRDNSKNTLYLQMNSLRAEDTAVYYCARGWDDINVWGQGTLVTVSS
V domain 2: EVQLLESGGGLVQPGGSLRLSCAASGFTFSSYTMDWVRQAPGKGLEWVSSISESGDTTDYADSVKGRFTISRDNSKNTLYLQMNSLRAEDTAVYYCARCSGGSCYSVNWGQGTLVTVSS
notes: Human IgG1 format with a VH in place of the VL; no VL domain; also called anti-CD40/OX40 tetra-VH IgG; OX40/CD40 bispecific antibody

binding result [3]: binds | binding result [4]: binds
B2: tetra VH IgG #5 (VH-CH1=CD40 #5, VH-CL=OX40 #2) (bispecific antibody, V domains shown, not shown: a dimerising Fc or GST)
V domain 1: B1 V domain 2
V domain 2: B1 V domain 1
notes: Human IgG1 format with a VH in place of the VL; no VL domain; also called tetra VH lgG#5

binding result [5]: binds | binding result [6]: binds
B3: tetra VH IgG #20 (VH-CH1=41BB #4, VH-CL=OX40 #2) (bispecific antibody, V domains shown, not shown: a dimerising Fc or GST)
V domain 1: EVQLLESGGGLVQPGGSLRLSCAASGFTFGDYAMSWFRQAPGKGLEWVAVLSYDGSNTDYADSVKGRFTISRDNSKNTLYLQMNSLRAEDTAVYYCAKGPLILAAGNYWGQGTLVTVSS
V domain 2: B1 V domain 1
notes: Human IgG1 format with a VH in place of the VL; no VL domain; also called anti 0X40/41 BB tetra-VH IgG

binding result [7]: binds | binding result [8]: binds
B4: tetra VH IgG #4 (VH-CH1=41BB #4, VH-CL=CD40 #3) (bispecific antibody, V domains shown, not shown: a dimerising Fc or GST)
V domain 1: B3 V domain 1
V domain 2: EVQLLESGGGLVQPGGSLRLSCAASGFTFSSYAMSWVRQAPGKGLEWVSRLNSDGITATYADSVKGRFTISRDNSKNTLYLQMNSLRAEDTAVYYCARGKIPAIDHWGQGTLVTVSS
notes: Human IgG1 format with a VH in place of the VL; no VL domain; also called tetra VH lgG#4; anti-41 BB/CD40 tetra-VH IgG
